Values quoted from earlier work as cited in patent US12653792B2, “Synthetic lipids for mRNA delivery” (Trustees of Tufts College, priority 2019, dated 2026).

Target: T1, ANGPTL3 (Homo sapiens, UniProt Q9Y5C1)
T1 sequence (Q9Y5C1 17-460): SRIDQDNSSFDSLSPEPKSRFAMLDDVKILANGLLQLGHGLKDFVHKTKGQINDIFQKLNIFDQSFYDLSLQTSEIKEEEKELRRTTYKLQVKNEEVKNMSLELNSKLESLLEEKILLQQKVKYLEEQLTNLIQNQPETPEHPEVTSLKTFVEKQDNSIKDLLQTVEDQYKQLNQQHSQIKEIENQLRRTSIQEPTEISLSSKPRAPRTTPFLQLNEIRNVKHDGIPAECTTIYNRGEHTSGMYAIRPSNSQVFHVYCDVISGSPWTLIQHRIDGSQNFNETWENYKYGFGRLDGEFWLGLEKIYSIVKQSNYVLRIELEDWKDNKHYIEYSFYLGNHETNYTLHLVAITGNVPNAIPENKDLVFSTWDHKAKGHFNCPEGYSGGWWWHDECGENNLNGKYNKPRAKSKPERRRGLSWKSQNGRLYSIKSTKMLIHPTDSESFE
Conditions: healthy human volunteers, clinical trial

Q: With “evinacumab: ANGPTL3 targeting monoclonal antibody” as the substance, how does the “LDL-C and TG levels” value read?
A: effective reduction in LDL-C and TG levels
